We go through two substances from article PMC5915575.

Numbering of substitutions follows the chain as printed.

Common to all, as to conditions: EMSA: 10 mM Tris-HCl pH 7.5, 1 mM EDTA, 50 mM NaCl, 5% glycerol, 30 min room temperature, 10 pmol DNA, 0-18 ug protein, 5% native PAGE at 4 °C; BLI: PBS pH …
Background: A gel shift assay detects complexes by their altered migration in electrophoresis.

Data set [1] relates to T1, SigB(Q225P) Q224P (Staphylococcus aureus (strain of the cloned gene not stated; XQW or Newman-SigB(Q225P)?)), ORF:92324cdd.
T1 sequence: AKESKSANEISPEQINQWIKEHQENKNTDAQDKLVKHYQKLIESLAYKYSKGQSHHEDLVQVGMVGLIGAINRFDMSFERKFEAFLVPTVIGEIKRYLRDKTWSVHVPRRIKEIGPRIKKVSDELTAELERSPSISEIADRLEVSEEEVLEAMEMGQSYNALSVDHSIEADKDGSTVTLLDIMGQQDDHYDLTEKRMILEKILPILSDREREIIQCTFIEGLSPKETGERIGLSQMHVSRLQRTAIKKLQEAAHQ
The data set is described as follows: EMSA.

For data set [2], the system named is T2, SigB (Staphylococcus aureus (strain of the cloned gene not stated; Newman or XQ?)), ORF:92324cdd.
T2 sequence: T1 sequence with P224Q
The data set is described as follows: EMSA.

Data set [3] has as its system SigB(Q225P) (Staphylococcus aureus (strain of the cloned gene not stated; XQW or Newman-SigB(Q225P)?)). The data set is described as follows: BLI.
In data set [4] the test system is SigB (Staphylococcus aureus (strain of the cloned gene not stated; Newman or XQ?)). The data set is described as follows: BLI. Background: BLI is a label-free optical method that tracks binding on a fibre tip over time.

Turning to “ACGCATAGGGACTTCGTGACCATTTACAGTCACAACTTTACTTAAGTTAATAAGTGTTAATTCATCAAACGACAGTTGTTCAACTGGTTGATGATGGTATTTCTTCATTCTTGTAAGTAAATTATTAATACGTAAAACGAGTTCCCTTGGACTAAATGGTTTTTTGACATAGTCATCTGCACCTAAAGTTAAGGCG (double strand) [saeR coding region fragment]”, the binding entry in data set [1] and in data set [2] was “no binding” in each case.

As for biotin-labeled nuc promoter (BLI), the values for the dissociation constant Kd in data set [3] and in data set [4] were 273 nM and 113 nM, respectively.
